In the experiment the target is BauA on the surface of the strains of the A. baumannii diversity set (100 strains, MRSN). The experiment in a line: native ELISA on the diversity set of 100 A. baumannii strains. (An ELISA detects its analyte on a solid surface through an enzyme-linked reagent.)

B1: αBauA mouse monoclonal antibody against BauA of Acinetobacter baumannii (hybridoma subclone 12C1) (antibody, V domains shown)
VH: EVQLQESGADLVRPGSSVKISCKASGYAFSNYWMHWMKQRPGQGLEWIGQIYPGDGDTNYNGKFKGKATLTADKSSSSAYMQLSSLISEDSAVYFCARGDFYYGSPFAYWGQGTLVTVSA
VL: DIVMTQAAPSVPVTPGESVSISCRSSKSLLHSNGNTYLYWFLQRPGQSPQLLIYRMSNLASGVPDRFSGSGSGTAFTLRISRVEAEDVGVYYCMQHLEYPLTFGAGTKLELK
Turning to B1, the percent of strains recognized is greater than 68%.

Values taken from patent publication US20260201022A1.
